Assay results from US20240092913A1 (HANALL BIOPHARMA, published 2024).

Assays:
water-soluble hFcRn [1] = target: T1, water-soluble hFcRn (human, UniProt P55899 24-297; P61769 21-119, limits assumed); test: SPR (Proteon XPR36, GLC chip), shFcRn immobilised, antibody as analyte, pH 7.4, 1:1 Langmuir, mean of six runs
T1 construct: also called shFcRn; human FcRn
Experimental: (§1) In kinetic analysis, a 1:1 Langmuir binding model was used, the analysis was repeated six times at each of pH 6.0 and pH 7.4, and the mean KD value was calculated. […], the chip was activated under the conditions of EDAC/NHS 0.5×, 30 μL/min and 300 sec. For immobilization, shFcRn was diluted in acetate buffer (pH 5.5) to concentrations of 2 μg/mL and 250 μL, and the dilution was allowed to flow on the chip at a rate of 30 μL/min. When an immobilization level of 200-300 RU was reached, the reaction was stopped. Then, deactivation was performed using ethanolamine at a rate of 30 μL/min for 300 sec. […] Sample dilution was performed using 1× PBST (pH 7.4) or 1× PBST (pH 6.0) at each pH. For sample analysis, association was performed at 50 μL/min for 200 sec, and the dissociation step was performed at 50 μL/min for 600 sec, after which regeneration was performed using glycine buffer (pH 2.5) at 100 μL/min for 18 sec. The kinetic analysis of each sample was repeated six times, and then the mean antigen binding affinity (KD) was measured.

water-soluble hFcRn [2] = target: T1, water-soluble hFcRn; test: SPR (Proteon XPR36, GLC chip), shFcRn immobilised, antibody as analyte, pH 6.0, 1:1 Langmuir, mean of six runs
Experimental: as §1

[3] = target: T2, human FcRn on human FcRn-expressing stable HEK293 cells (human, UniProt P55899 24-365; P61769 21-119); test: FACS competition on human FcRn-overexpressing HEK293 cells, pH 6.0, blocking of Alexa488-hIgG1, antibody 0.01-200 nM, 4-parameter logistic regression
T2 construct: also called hFcRn-expressing HEK293 cells; human FcRn-overexpressing HEK293 cells
T2 sequence (P55899 24-365 limits assumed, chain 1 of 2): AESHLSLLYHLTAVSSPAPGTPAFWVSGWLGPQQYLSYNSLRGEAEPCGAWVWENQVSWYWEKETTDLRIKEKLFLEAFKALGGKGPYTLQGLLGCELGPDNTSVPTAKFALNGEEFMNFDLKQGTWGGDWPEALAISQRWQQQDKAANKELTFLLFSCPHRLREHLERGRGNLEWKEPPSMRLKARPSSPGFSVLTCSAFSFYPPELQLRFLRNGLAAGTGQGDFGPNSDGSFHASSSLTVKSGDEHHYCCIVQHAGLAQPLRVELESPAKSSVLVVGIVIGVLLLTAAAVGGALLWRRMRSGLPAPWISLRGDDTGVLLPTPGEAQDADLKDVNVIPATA
T2 sequence (P61769 21-119 limits assumed, chain 2 of 2): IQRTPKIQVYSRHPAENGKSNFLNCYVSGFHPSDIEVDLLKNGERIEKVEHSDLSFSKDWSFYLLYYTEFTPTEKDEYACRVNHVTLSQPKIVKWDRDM
Experimental: Each antibody sample was diluted to 400 nM, and then diluted by 4-fold serial dilution in a 96-well v-bottom plate. 50 μL of the sample diluted to a final concentration of 200 nM to 0.01 nM was added to each well. […] Finally, 40 μL of cells diluted to a cell concentration of 2.5×10⁶ cells/mL were added to each well and suspended. The plate was mounted in a rotator at 4° C. and rotated at an angle of 15° and 10 rpm for 90 minutes. After completion of the reaction, the plate was taken out of the rotator, and centrifuged at 2000 rpm for 10 minutes to remove the supernatant. 100 μL of reaction buffer was added to each well to dissolve the cell pellets, and the plate was transferred into a blue test tube. Then, 200 μL of reaction buffer was added to each well, and measurement was performed in FACS. The FACS measurement was performed under the following conditions: FS 108 volts, SS 426 volts, FL1 324 volts, FL2 300 volts. These cells were analyzed by FACS using BD FACSDiva™ v6.1.3 software (BD Bioscience). The results were expressed as mean fluorescence intensity (MFI). The MFI of the test group was processed after subtracting the measured MFI value of the cells alone (background signal).

[4] = target: T2, human FcRn on human FcRn-expressing …; test: FACS on human FcRn-expressing stable HEK293 cells, pH 7.4, 0.11-250 nM antibody, 4 parameter logistic regression of MFI
Experimental: The plate was mounted in a rotator at 4° C. and rotated at an angle of 15° and 10 rpm for 90 minutes. […] The FACS measurement was performed under the following conditions: FS 108 volts, SS 426 volts, FL1 324 volts, FL2 300 volts. These cells were analyzed by FACS using BD FACSDiva™ v6.1.3 software (BD Bioscience).

T1 sequence (P55899 24-297 limits assumed, chain 1 of 2): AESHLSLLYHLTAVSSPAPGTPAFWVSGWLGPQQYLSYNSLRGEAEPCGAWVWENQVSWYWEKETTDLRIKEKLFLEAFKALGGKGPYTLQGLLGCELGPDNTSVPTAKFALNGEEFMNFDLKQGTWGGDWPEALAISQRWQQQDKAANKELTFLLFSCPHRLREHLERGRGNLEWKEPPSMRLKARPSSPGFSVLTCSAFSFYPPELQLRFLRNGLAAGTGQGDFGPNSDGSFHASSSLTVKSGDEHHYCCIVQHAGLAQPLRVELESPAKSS
T1 sequence (P61769 21-119 limits assumed, chain 2 of 2): as the sequence (P61769 21-119 limits assumed, chain 2 of 2) above

Row | Binder | Kd (water-soluble hFcRn [1]) [nM] | koff (water-soluble hFcRn [1]) [s⁻¹] | kon (water-soluble hFcRn [1]) [M⁻¹ s⁻¹] | Kd (water-soluble hFcRn [2]) [nM] | koff (water-soluble hFcRn [2]) [s⁻¹] | kon (water-soluble hFcRn [2]) [M⁻¹ s⁻¹] | IC50 [3] [nM] | EC50 [4] [nM]
1 | HL161A antibody (antibody, human IgG1, V domains shown) VH: EVQLLESGGGLVQPGGSLRLSCAASEFTFGSCVMTWVRQAPGKGLEWVSVISGSGGSTYYADSVKGRFTISRDNSKNTLYLQMNSLRAEDTAVYYCAKTPWWLRSPFFDYWGQGTLVTVSS VL: SYVLTQPPSVSVAPGQTARITCGGNNIGSTSVHWYQQKPGQAPVLVVHDDSDRPSGIPERFSGSNSGNTATLTISRVEAGDEADYYCQVRDSSSDHVIFGGGTKLTVLGQPKAAPSVTL | 0.247 | 0.000327 | 1.32e+06 | 0.18 | 0.000326 | 1.81e+06 | 0.92 | 2.46
2 | HL161B antibody (antibody, V domains shown, the VL entry runs a few residues into the constant region) VH: QLLLQESGPGLVKPSETLSLTCTVSGGSLSSSFSYWVWIRQPPGKGLEWIGTIYYSGNTYYNPSLKSRLTISVDTSKNHFSLNLSSVTAADTAVYYCARRAGILTGYLDSWGQGTLVTVSS VL: SYVLTQSPSVSVAPGQTARITCGGNNIGSKSVHWYQQKPGQAPVLVVYDDSDRPSGIPERFSASNSGNTATLTISRVEAGDEADYYCQVWDSSSDHVVFGGGTKLTVLGQPKAAPSVTL | 1.76 | 0.00125 | 710000 | 0.807 | 0.000735 | 912000 | 2.24 | 1.2
3 | HL161C antibody (antibody, human IgG1, V domains shown) VH: QVQLVQSGAEVKKPGASVKVSCKASGYTFTGCYMHWVRQAPGQGLEWMGRINPNSGGTNYAQKFQGRVTMTRDTSISTAYMDLSRLRSDDTAVYYCARDYSGWSFDYWGQGTLVTVSS VL: DIQMTQSPSSLSASVGDRVTITCRASQGISNYLAWFQQKPGKAPKSLIYAASSLQSGVPSKFSGSGSGTDFTLTISSLQSEDFATYYCQQYDSYPPTFGGGTKVEIKRTVAAPSVFI | 0.232 | 0.000316 | 1.36e+06 | 0.191 | 0.000332 | 1.74e+06 |  | 
4 | HL161D antibody (antibody, human IgG1, V domains shown, the VL entry runs a few residues into the constant region) VH: QLQLQESGPGLVKPSETLSLTCTVSGGSISSSSYYWGWIRQPPGKGLEWIGNIYYSGSTYYNPSLMSRVTISVDTSKNQFSLKLSSVTAADTAVYYCARQLSYNWNDRLFDYWGQGTLVTVSS VL: SYELTQPLSVSVALGQTARITCGGNNIGSKNVHWYQQKPGQAPVLVIYRDSNRPSGIPERFSGSNSGNTATLTISRAQAGDEADYYCQVWDSSTVVFGGGTKLTVLGQPKAAPSVTL | 1.78 | 0.00124 | 699000 | 1.43 | 0.00138 | 970000 |  | 
